# Experimental data from paper PMC4873313.
# Like-named read-outs stand apart in the source and are kept apart here.
# What was measured:
# [1] = biological target: aryl hydrocarbon receptor nuclear translocator PAS-B E362R, conjugated with Alexa-Fluor 488; assay: MST
# [2] = biological target: aryl hydrocarbon receptor nuclear translocator PAS-B E362R; assay: ITC
# [3] = biological target: aryl hydrocarbon receptor nuclear translocator PAS-B E362R, conjugated with Alexa-Fluor 488; assay: MST; remark: listed apart in the source
# [4] = biological target: aryl hydrocarbon receptor nuclear translocator PAS-B E362R, conjugated with Alexa-Fluor 488; assay: MST; remark: listed apart in the source
substance,measurement,setting,value
HIF-2α PAS-B R247E (domain or fragment),Kd,[1],0.25 µM
same,Kd,[2],0.56 µM
same,dH,[2],18.4 kJ/mol
same,Kd,[3],0.82 µM
same,Kd,[4],0.17 µM
